From the supplement of paper PMC10724198
± gives the standard deviation of the averaged measurements.

The sequences below were run on Saccharomyces cerevisiae (assay: protein stability index of tFT-peptide fusion (C-terminal peptide) (PSI (0-1 scale)); higher = more stable (slower turnover)). Details: genetic background: wild type; temperature: 30 C.
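Also: PSI is a weighted mean of sequencing reads over stability bins, variants kept only with over 10 reads, mCherry proximal and sfGFP distal, peptide attached via GGGS linker.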

First: PPPAPSPPPSPP
Second: PPPAPSSPVLVP
The protein stability index of the first is lower: 0.611 ± 0.0099 for the first, 0.686 ± 0.037 for the second.

First: PPPARSPLPLPP
Second: PPPFPLLSPPPL
The protein stability index of the first is lower: 0.742 ± 0.018 for the first, 0.808 ± 0.0097 for the second.

PPPHPHLPPHSD and PPPHPLLRPSPS are within error of each other in protein stability index: 0.69 ± 0.06 for the first, 0.737 ± 0.011 for the second.

First: PPPHPPHSALPS
Second: PPPHPPLPPPTP
The protein stability index of the first is higher: 0.762 ± 0.021 for the first, 0.678 ± 0.039 for the second.

Going from PPPHPPPPAPPY to PPPHPTLSPLVP, the protein stability index falls from 0.735 ± 0.019 to 0.676 ± 0.013.

Going from PPPHTHPPTPLL to PPPLASLPSFLR, the protein stability index rises from 0.689 ± 0.011 to 0.739 ± 0.011.

Going from PPPLLPPRAPSP to PPPLLTSSPPPR, the protein stability index rises from 0.6294 ± 0.0031 to 0.712 ± 0.025.

PPPLPASPPPPY and PPPLPLSLCEPL are within error of each other in protein stability index: 0.683 ± 0.035 for the first, 0.7 ± 0.019 for the second.

PPPLPPALSPSH and PPPLPPPHPSPI are within error of each other in protein stability index: 0.679 ± 0.07 for the first, 0.669 ± 0.019 for the second.

PPPLPPPSLLPT and PPPLPSIPPFVL are within error of each other in protein stability index: 0.762 ± 0.043 for the first, 0.708 ± 0.094 for the second.

PPPLPSPAPPPP and PPPLSPPRPPRH are within error of each other in protein stability index: 0.709 ± 0.053 for the first, 0.701 ± 0.022 for the second.

PPPNSTPNPLST and PPPPAHSYHPPS are within error of each other in protein stability index: 0.7394 ± 0.0058 for the first, 0.714 ± 0.16 for the second.

PPPPGPSSPHPP and PPPPHCPQPPPP are within error of each other in protein stability index: 0.707 ± 0.041 for the first, 0.72 ± 0.018 for the second.

Compared with PPPPHDLLTPPS, PPPPLAPSPPPS is lower in protein stability index: 0.736 ± 0.0079 for the first, 0.6542 ± 0.0025 for the second.

PPPPLPLPPSLP and PPPPLPPALFPP are within error of each other in protein stability index: 0.5979 ± 0.0054 for the first, 0.589 ± 0.013 for the second.

Going from PPPPLPPFPPHP to PPPPLPPSSPPL, the protein stability index rises from 0.659 ± 0.017 to 0.751 ± 0.027.

PPPPPACRLCFF and PPPPPLPQAPPT are within error of each other in protein stability index: 0.634 ± 0.1 for the first, 0.687 ± 0.014 for the second.

PPPPPPLPPLSP and PPPPPPLPPSAA are within error of each other in protein stability index: 0.717 ± 0.035 for the first, 0.711 ± 0.0091 for the second.

PPPPPPNLASHP and PPPPPPPCFFPP are within error of each other in protein stability index: 0.707 ± 0.0031 for the first, 0.715 ± 0.048 for the second.

PPPPPPPHPTPT and PPPPPPPLPPPP are within error of each other in protein stability index: 0.676 ± 0.039 for the first, 0.667 ± 0.015 for the second.

Compared with PPPPPPPPAPPY, PPPPPPPPAVVA is lower in protein stability index: 0.725 ± 0.017 for the first, 0.569 ± 0.028 for the second.

PPPPPPPPPHSP and PPPPPPPPPLAF are within error of each other in protein stability index: 0.769 ± 0.01 for the first, 0.653 ± 0.12 for the second.

PPPPPPPPRPPS and PPPPPPPPTPAS are within error of each other in protein stability index: 0.651 ± 0.069 for the first, 0.654 ± 0.023 for the second.

PPPPPPPPVPLL and PPPPPPPVLSSI are within error of each other in protein stability index: 0.708 ± 0.017 for the first, 0.647 ± 0.076 for the second.

First: PPPPPPSAPPPS
Second: PPPPPPSISPSP
The protein stability index of the first is higher: 0.669 ± 0.026 for the first, 0.5389 ± 0.0053 for the second.

PPPPPPSPHPPS and PPPPPQLPQCPP are within error of each other in protein stability index: 0.726 ± 0.024 for the first, 0.711 ± 0.042 for the second.

First: PPPPPRPPAGFL
Second: PPPPPRPPPARL
The protein stability index of the first is higher: 0.924 ± 0.095 for the first, 0.672 ± 0.06 for the second.

First: PPPPPRPSPPHP
Second: PPPPPSSPPLPP
The protein stability index of the first is higher: 0.833 ± 0.022 for the first, 0.64 ± 0.083 for the second.

PPPPPSVTRTQP and PPPPPTSPPPHP are within error of each other in protein stability index: 0.649 ± 0.043 for the first, 0.706 ± 0.032 for the second.

PPPPRLSLHSPP and PPPPRPACLPSN are within error of each other in protein stability index: 0.713 ± 0.0085 for the first, 0.727 ± 0.018 for the second.

PPPPRPSSDRFR and PPPPSLPHTIGP are within error of each other in protein stability index: 0.684 ± 0.016 for the first, 0.643 ± 0.042 for the second.

PPPPSLPPSFPS and PPPPSPPPIPSP are within error of each other in protein stability index: 0.67 ± 0.072 for the first, 0.706 ± 0.04 for the second.

Compared with PPPPSRPPPAPR, PPPPSRPPPPRL is higher in protein stability index: 0.701 ± 0.053 for the first, 0.789 ± 0.021 for the second.

PPPPTLSPPRSL and PPPPTPRPPSSL are within error of each other in protein stability index: 0.718 ± 0.034 for the first, 0.728 ± 0.061 for the second.

Going from PPPPVPPPALPL to PPPPVPPPPSSL, the protein stability index rises from 0.644 ± 0.045 to 0.749 ± 0.037.

Going from PPPQFPRPRPTS to PPPRFRPLPLRA, the protein stability index falls from 0.724 ± 0.014 to 0.5935 ± 0.0019.

PPPRPPPRPLPP and PPPRPPSPPPPP are within error of each other in protein stability index: 0.669 ± 0.024 for the first, 0.672 ± 0.051 for the second.

PPPRPPSPPPPS and PPPRPRPSSRSI are within error of each other in protein stability index: 0.699 ± 0.035 for the first, 0.71 ± 0.016 for the second.

PPPRTTPYPSSL and PPPRVHPCHPPC are within error of each other in protein stability index: 0.714 ± 0.055 for the first, 0.678 ± 0.031 for the second.

PPPSPGSSAPPP and PPPSPLANPPSP are within error of each other in protein stability index: 0.676 ± 0.037 for the first, 0.728 ± 0.092 for the second.

PPPSPPPQPHRP and PPPSQPTSPPPP are within error of each other in protein stability index: 0.665 ± 0.018 for the first, 0.732 ± 0.067 for the second.

First: PPPSRLSPVICP
Second: PPPSRSLPPRPQ
The protein stability index of the first is lower: 0.612 ± 0.01 for the first, 0.727 ± 0.027 for the second.

PPPSRSLPPRRL and PPPSSIGRTPIS are within error of each other in protein stability index: 0.661 ± 0.03 for the first, 0.693 ± 0.033 for the second.

Compared with PPPSSPPPPAPL, PPPTHQLAVLSP is lower in protein stability index: 0.694 ± 0.035 for the first, 0.6413 ± 0.0062 for the second.

PPPTPPPAPSHR and PPPTSPPHPPSP are within error of each other in protein stability index: 0.677 ± 0.1 for the first, 0.701 ± 0.083 for the second.

PPPVFPPLPVLS and PPQFIYYPLPLF are within error of each other in protein stability index: 0.598 ± 0.007 for the first, 0.616 ± 0.063 for the second.

PPQGMTGGRGDR and PPQTHPLPCPSP are within error of each other in protein stability index: 0.697 ± 0.077 for the first, 0.745 ± 0.018 for the second.

Going from PPRAPFVSPFGY to PPRAPSPSPLPP, the protein stability index rises from 0.723 ± 0.012 to 0.893 ± 0.1.

PPRCPLPPLSPP and PPRFFARPPFRT are within error of each other in protein stability index: 0.701 ± 0.11 for the first, 0.6309 ± 0.0059 for the second.

PPRGAPWTRPPQ and PPRGFDPSFQTV are within error of each other in protein stability index: 0.691 ± 0.015 for the first, 0.7 ± 0.18 for the second.

PPRHPPPSPLVA and PPRHTPFSLPPF are within error of each other in protein stability index: 0.668 ± 0.011 for the first, 0.651 ± 0.074 for the second.

Going from PPRLNKAPCLDP to PPRPFTLLPPPP, the protein stability index falls from 0.705 ± 0.036 to 0.6424 ± 0.0062.

PPRPPAPHLSGI and PPRPPPAPPPLP are within error of each other in protein stability index: 0.681 ± 0.039 for the first, 0.642 ± 0.0021 for the second.

PPRPPPFPPLLP and PPRPPPHPPLPP are within error of each other in protein stability index: 0.679 ± 0.058 for the first, 0.678 ± 0.0057 for the second.

Compared with PPRPPPLPPSRP, PPRPPPSPPSFP is higher in protein stability index: 0.627 ± 0.032 for the first, 0.688 ± 0.014 for the second.

Going from PPRPPRFFLLPP to PPRPQPPGSSFS, the protein stability index rises from 0.6586 ± 0.0061 to 0.741 ± 0.012.

PPRPRPRPLSPP and PPRPSLIPPLPS are within error of each other in protein stability index: 0.65 ± 0.039 for the first, 0.61 ± 0.016 for the second.

PPRPSTPPRHSL and PPRQPACAFLPS are within error of each other in protein stability index: 0.695 ± 0.058 for the first, 0.653 ± 0.09 for the second.

Compared with PPRSPPPLSPTP, PPRSPPPPPTLP is higher in protein stability index: 0.583 ± 0.038 for the first, 0.6578 ± 0.001 for the second.

First: PPSAALPTSPTG
Second: PPSFCFFLLPFL
The protein stability index of the first is higher: 0.6911 ± 0.0015 for the first, 0.6558 ± 0.0054 for the second.

PPSHSPRPLSFL and PPSHYPFTPADP are within error of each other in protein stability index: 0.653 ± 0.08 for the first, 0.728 ± 0.046 for the second.

PPSIFELFPSPP and PPSLHSRAFTLS are within error of each other in protein stability index: 0.7122 ± 0.0051 for the first, 0.557 ± 0.2 for the second.

Going from PPSLPAPPPPPA to PPSLSGECSPSF, the protein stability index rises from 0.6655 ± 0.0023 to 0.6781 ± 0.0039.

PPSLTPPFSPLL and PPSLTSPRHPPT are within error of each other in protein stability index: 0.703 ± 0.027 for the first, 0.669 ± 0.022 for the second.

Compared with PPSNASFSSPPH, PPSPAGPLPSPA is lower in protein stability index: 0.824 ± 0.035 for the first, 0.686 ± 0.021 for the second.

PPSPHLPPPPAL and PPSPPAPPAPPH are within error of each other in protein stability index: 0.715 ± 0.016 for the first, 0.692 ± 0.038 for the second.

Compared with PPSPPLPPLPPP, PPSPPLRPPSLC is higher in protein stability index: 0.653 ± 0.0084 for the first, 0.704 ± 0.024 for the second.

PPSPPPPPPLHS and PPSPPPTPFPPS are within error of each other in protein stability index: 0.676 ± 0.042 for the first, 0.651 ± 0.1 for the second.

PPSPPPTTPSPP and PPSPPSSHPLLP are within error of each other in protein stability index: 0.656 ± 0.035 for the first, 0.679 ± 0.0078 for the second.

PPSPSPPAPQAS and PPSRPPPPPPSP are within error of each other in protein stability index: 0.632 ± 0.05 for the first, 0.702 ± 0.061 for the second.

PPSSLPRLQCSP and PPSSPHAPTALP are within error of each other in protein stability index: 0.674 ± 0.054 for the first, 0.685 ± 0.032 for the second.

PPSSPTRPSSPL and PPTANPMLPPPF are within error of each other in protein stability index: 0.736 ± 0.051 for the first, 0.651 ± 0.055 for the second.

PPTASPPPLSPL and PPTFLLRSAPSL are within error of each other in protein stability index: 0.691 ± 0.083 for the first, 0.669 ± 0.043 for the second.

Going from PPTFRLHCPPAT to PPTLRRGSTFYH, the protein stability index falls from 0.72 ± 0.02 to 0.6788 ± 0.0016.

PPTNTPTPPSYV and PPTPAAPGLPPA are within error of each other in protein stability index: 0.691 ± 0.025 for the first, 0.677 ± 0.035 for the second.

First: PPTPPAFPPLLA
Second: PPTPQRRRSPPP
The protein stability index of the first is lower: 0.662 ± 0.03 for the first, 0.7326 ± 0.0066 for the second.

PPTPSLPRPPMQ and PPTPSSPRPMAP are within error of each other in protein stability index: 0.676 ± 0.014 for the first, 0.818 ± 0.14 for the second.

First: PPTPVSRSPPPA
Second: PPTRPPPALIPP
The protein stability index of the first is lower: 0.665 ± 0.021 for the first, 0.711 ± 0.022 for the second.

PPTRSLYLLPLI and PPVLPVGLPPTP are within error of each other in protein stability index: 0.6983 ± 0.0035 for the first, 0.684 ± 0.035 for the second.

Going from PPVLTLFMPSYS to PPVPPLRPSCPS, the protein stability index falls from 0.7051 ± 0.0043 to 0.684 ± 0.01.
